In patent US20230365674 (published 2023):
Substitutions are numbered along the chain they refer to. Where two headings read alike, the source gives them in different places.

Tests used:
[1] = molecular target: T1, rat NPR1 (rat); assay: ELISA
T1 chain: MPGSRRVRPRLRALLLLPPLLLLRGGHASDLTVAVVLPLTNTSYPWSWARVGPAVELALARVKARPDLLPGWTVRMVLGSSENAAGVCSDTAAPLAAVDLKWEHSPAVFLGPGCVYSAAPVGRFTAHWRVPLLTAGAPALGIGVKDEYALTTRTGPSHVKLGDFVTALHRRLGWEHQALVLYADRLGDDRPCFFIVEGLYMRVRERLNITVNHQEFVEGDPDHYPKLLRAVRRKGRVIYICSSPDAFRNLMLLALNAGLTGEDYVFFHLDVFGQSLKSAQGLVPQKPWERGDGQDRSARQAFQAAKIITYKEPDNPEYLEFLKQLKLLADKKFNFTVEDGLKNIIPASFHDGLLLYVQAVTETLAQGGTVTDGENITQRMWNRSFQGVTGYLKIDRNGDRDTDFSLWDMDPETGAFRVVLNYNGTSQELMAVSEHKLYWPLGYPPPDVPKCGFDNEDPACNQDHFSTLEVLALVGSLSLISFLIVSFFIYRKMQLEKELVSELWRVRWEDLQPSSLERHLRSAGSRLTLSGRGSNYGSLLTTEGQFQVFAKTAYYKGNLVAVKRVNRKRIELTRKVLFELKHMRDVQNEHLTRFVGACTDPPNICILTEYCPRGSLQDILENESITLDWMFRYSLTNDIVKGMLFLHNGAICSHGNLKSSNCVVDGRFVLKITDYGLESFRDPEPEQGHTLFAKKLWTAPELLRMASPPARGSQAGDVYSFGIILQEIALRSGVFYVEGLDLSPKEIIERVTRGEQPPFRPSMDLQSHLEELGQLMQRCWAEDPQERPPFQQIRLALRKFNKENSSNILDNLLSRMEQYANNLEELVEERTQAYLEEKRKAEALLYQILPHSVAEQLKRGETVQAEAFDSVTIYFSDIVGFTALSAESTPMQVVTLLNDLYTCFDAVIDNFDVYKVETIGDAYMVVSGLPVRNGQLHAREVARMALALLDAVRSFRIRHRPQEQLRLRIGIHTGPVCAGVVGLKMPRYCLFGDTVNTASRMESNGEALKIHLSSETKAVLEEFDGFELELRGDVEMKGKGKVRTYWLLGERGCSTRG

[2] = molecular target: T2, human NPR1 W74R + ANP (human); assay: ELISA
T2 chain 1: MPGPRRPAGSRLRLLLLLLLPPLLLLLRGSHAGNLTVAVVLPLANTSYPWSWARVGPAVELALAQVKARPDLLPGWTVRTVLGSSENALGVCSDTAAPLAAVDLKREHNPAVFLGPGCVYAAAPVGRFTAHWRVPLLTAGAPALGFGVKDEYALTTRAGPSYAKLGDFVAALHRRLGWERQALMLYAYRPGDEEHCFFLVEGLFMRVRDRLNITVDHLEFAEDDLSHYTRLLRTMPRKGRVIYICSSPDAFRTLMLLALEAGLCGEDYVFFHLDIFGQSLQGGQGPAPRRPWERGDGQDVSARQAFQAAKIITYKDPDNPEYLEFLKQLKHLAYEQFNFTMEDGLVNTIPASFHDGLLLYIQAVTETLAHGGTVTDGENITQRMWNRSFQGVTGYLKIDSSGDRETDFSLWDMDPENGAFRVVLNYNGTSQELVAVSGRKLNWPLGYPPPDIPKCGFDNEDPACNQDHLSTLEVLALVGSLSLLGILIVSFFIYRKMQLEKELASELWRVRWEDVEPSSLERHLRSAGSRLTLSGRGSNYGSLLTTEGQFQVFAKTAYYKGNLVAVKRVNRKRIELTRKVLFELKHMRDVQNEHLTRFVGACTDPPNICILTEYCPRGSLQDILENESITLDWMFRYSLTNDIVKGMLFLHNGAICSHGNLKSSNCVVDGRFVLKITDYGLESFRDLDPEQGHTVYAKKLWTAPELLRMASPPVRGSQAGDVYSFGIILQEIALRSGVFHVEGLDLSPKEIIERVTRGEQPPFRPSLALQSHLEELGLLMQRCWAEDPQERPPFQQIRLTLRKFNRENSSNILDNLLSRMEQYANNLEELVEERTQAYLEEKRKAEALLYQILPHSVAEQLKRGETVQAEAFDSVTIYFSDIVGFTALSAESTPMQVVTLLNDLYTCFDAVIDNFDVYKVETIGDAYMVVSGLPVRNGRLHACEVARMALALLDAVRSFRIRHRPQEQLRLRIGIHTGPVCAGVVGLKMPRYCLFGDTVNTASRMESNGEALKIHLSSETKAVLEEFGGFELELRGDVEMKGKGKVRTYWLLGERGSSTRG
T2 chain 2: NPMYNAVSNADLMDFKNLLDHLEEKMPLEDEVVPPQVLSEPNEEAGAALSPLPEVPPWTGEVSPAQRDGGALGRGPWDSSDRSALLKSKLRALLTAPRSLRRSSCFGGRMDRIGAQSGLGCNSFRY

[3] = molecular target: T3, rat NPR1-ANP complex (rat); assay: ELISA
T3 chain 1: T1 chain
T3 chain 2: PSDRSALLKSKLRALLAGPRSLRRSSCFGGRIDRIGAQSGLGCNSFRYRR

[4] = molecular target: T4, human NPR1 (human); assay: ELISA
T4 chain: T2 chain 1 with R106W

[5] = molecular target: T5, human NPR3 (human, UniProt P17342); assay: ELISA
T5 chain: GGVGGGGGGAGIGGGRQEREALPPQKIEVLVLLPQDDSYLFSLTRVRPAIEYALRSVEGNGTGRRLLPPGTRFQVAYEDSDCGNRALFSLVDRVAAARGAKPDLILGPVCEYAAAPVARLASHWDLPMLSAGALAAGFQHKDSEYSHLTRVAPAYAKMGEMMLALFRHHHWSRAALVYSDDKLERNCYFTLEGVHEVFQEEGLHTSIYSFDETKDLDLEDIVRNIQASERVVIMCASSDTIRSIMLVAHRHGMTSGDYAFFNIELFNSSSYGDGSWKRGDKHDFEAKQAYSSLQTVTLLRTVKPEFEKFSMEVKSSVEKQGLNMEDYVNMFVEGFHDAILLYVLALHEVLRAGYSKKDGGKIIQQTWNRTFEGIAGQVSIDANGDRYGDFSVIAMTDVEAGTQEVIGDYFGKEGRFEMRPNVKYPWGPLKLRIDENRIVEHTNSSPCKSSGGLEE

[6] = molecular target: T6, human NPR1 W74R (human); assay: ELISA
T6 chain: T2 chain 1

[7] = molecular target: T7, human NPR3 + ANP (human, UniProt P17342); assay: ELISA
T7 chain 1: T5 chain
T7 chain 2: T2 chain 2

[8] = molecular target: T6, human NPR1 W74R; assay: ELISA
[9] = molecular target: T2, human NPR1 W74R + ANP; assay: ELISA
[10] = molecular target: T8, human NPR1-ANP complex (human); assay: ELISA
T8 chain 1: T2 chain 1 with R106W
T8 chain 2: T2 chain 2

[11] = molecular target: T4, human NPR1; assay: ELISA
[12] = molecular target: T4, human NPR1; assay: SPR
[13] = molecular target: T4, human NPR1; assay: SPR
[14] = molecular target: T8, human NPR1-ANP complex; assay: SPR
[15] = molecular target: T8, human NPR1-ANP complex; assay: SPR

B1: WW01 IgG (antibody, V domains shown)
VH: QVQLLESGGGLVQPGGSLRLSCAASGFTFNTHYIHWVRQAPGKGLEWVSSISGSGSNTYYADSVKGRFTISRDNSKNTLYLQMNSLRAEDTAVYYCARERGYVYYHMFDPWGQGTLVTVSS
VL: DIVLTQSPATLSLSPGERATLSCRASQSITRNYLAWYQQKPGQAPRLLIYGASSRATGIPARFSGSGSGTDFTLTISSLEPEDFAVYYCQQHSMYPRTFGQGTKVEIK
B1: no binding [1]; no binding [2]; no binding [3]. B1: no binding [4]; no binding [5]; no binding [6]. B1: no binding [7].

B2: WW06 IgG (antibody, V domains shown)
VH: QVQLVQSGAEVKKPGESLKISCKGSGYSFTSYWIAWVRQMPGKGLEWMGRIDPDNSYTRYSPSFQGQVTISADKSISTAYLQWSSLKASDTAMYYCARWLSPGYALGEQPAGMDHWGQGTLVTVSS
VL: DIVLTQPPSVSGAPGQRVTISCTGSSSNIGAGYAVHWYQQLPGTAPKLLIYSNNKRPSGVPDRFSGSKSGTSASLAITGLQAEDEADYYCQSYDLQKSSRVFGGGTKLTVL
With B2 the EC50 [8] was 0.9 nM, the EC50 [9] was 0.8 nM and the binding result [1] was “no binding”. For the same binder, the binding result [3] was “no binding”, the EC50 [10] was 1.1 nM and the EC50 [11] was 2.5 nM. B2: no binding [5]; no binding [7].

B3: WW06 FabCys (antibody, V domains shown)
VH: B2 VH
VL: B2 VL
In the case of B3, the Kd [12] is reported as 5.3 nM, the Kd [13] is reported as 5.3 nM and the Kd [14] is reported as 12 nM. It also gave a Kd [15] of 12 nM.
